According to publication PMC5578693, “The role of the C-terminal D0 domain of flagellin in activation of Toll like receptor 5” (PLoS Pathogens, 2017):

B1: S. typhimurium flagellin FliC, wild type (natural protein, UniProt P06179 1-495, looked up)
chain: MAQVINTNSLSLLTQNNLNKSQSALGTAIERLSSGLRINSAKDDAAGQAIANRFTANIKGLTQASRNANDGISIAQTTEGALNEINNNLQRVRELAVQSANSTNSQSDLDSIQAEITQRLNEIDRVSGQTQFNGVKVLAQDNTLTIQVGANDGETIDIDLKQINSQTLGLDTLNVQQKYKVSDTAATVTGYADTTIALDNSTFKASATGLGGTDQKIDGDLKFDDTTGKYYAKVTVTGGTGKDGYYEVSVDKTNGEVTLAGGATSPLTGGLPATATEDVKNVQVANADLTEAKAALTAAGVTGTASVVKMSYTDNNGKTIDGGLAVKVGDDYYSATQNKDGSISINTTKYTADDGTSKTALNKLGGADGKTEVVSIGGKTYAASKAEGHNFKAQPDLAEAAATTTENPLQKIDAALAQVDTLRSDLGAVQNRFNSAITNLGNTVNNLTSARSRIEDSDYATEVSNMSRAQILQQAGTSVLAQANQVPQNVLSLLR
notes: flagellin FliC of S. typhimurium (SaTy), UniProt P06179; cloned into pET19b; also called SaTy; wild-type flagellin; source: E. coli BL21 (DE3) pLysS, purified (Ni-NTA); not shown: His10, N-terminal, kept

Assays:
[1] = target: soluble hTLR5 ectodomain fused to the Fc region of human IgG1 (human) (UniProt O60602)
[2] = target: T1, soluble hTLR5 ectodomain fused to the Fc region of human IgG1 (human, UniProt O60602 21-639); test: co-IP; 10 ug hTLR5-Fc bound to protein A-coupled Dynabeads (control: beads with water only); 20 ug wt or mutant flagellin added, 1 h at room temperature; washed 3 times with 1 x PBS, 0.02% Tween 20, pH 7.5; eluted in 0.1% SDS at 95 C; flagellin detected by Western blot with anti-His antibodies; conditions: both partners purified
T1 construct: human Toll-like receptor 5, ectodomain; UniProtKB O60602; In the functional rows this molecule stands for human TLR5, which was there full length on HEK293 cells (pUNO-hTLR5) or endogenous in A549 cells; also called hTLR5-Fc; source: bought: Invivogen
T1 sequence (O60602 21-639): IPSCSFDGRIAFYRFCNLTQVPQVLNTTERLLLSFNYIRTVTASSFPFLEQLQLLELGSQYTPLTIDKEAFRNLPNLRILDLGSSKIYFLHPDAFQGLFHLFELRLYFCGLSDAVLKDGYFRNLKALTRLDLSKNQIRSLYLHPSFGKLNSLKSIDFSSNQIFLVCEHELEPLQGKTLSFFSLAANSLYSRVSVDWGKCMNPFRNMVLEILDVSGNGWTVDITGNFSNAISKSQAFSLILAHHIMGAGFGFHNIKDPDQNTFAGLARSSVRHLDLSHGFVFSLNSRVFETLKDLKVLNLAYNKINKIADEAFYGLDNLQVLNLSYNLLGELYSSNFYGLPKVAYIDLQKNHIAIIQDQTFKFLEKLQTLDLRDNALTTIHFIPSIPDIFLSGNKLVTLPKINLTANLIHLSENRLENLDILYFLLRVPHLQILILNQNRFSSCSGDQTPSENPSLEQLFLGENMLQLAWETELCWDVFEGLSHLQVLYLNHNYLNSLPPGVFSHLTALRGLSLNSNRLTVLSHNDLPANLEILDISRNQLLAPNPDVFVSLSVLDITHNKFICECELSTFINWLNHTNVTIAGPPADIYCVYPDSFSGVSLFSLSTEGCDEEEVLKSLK

Chain of soluble hTLR5 ectodomain fused to the Fc region of human IgG1 (human) (O60602 21-639): as above

Molecule | TLR5 activation: NF-kB reporter in A549 cells (SEAP) and in hTLR5-transfected HEK293 cells (luciferase, 0-1000 ng/ml); lowest active concentration [1] [ng/mL] | binding result [2]
dimSFΔD0, two SFΔD0 domains tethered into a single polypeptide chain by a 27 amino acid peptide linker | 50 | 
B1 |  | binds
